Experimental data from US10400230B2, “Protease variants and polynucleotides encoding same” (NOVOZYMES A/S, priority 2014, dated 2019).

Legend:
[1] = Determination of binding constants of inhibitor (NNIC) in Model B detergent, Suc-AAPF-pNA read-out; assay type: biochemical; conditions: Ki of variant with the mutation relative to variant without the mutation, <1.0 beneficial
Method: (§1) Purified protease variants are pre-diluted to approximately 0.2 mg/ml in dilution buffer. 40 μl diluted protease is then mixed with 40 μl inhibitor solution (Z-Gly-Ala-NHCH(CH2C6H4pOH)C(OH)(SO3Na)—H, wherein Z is benzyloxycarbonyl) or 40 μl 4-FPBA solution in the well of a 96 well microtiter plate (Nunc F 96-MTP). […] After 10 min mixing of protease and inhibitor at room temperature, 30 μl of the mixture is transferred to a microtiter plate (Nunc U96 PP 0.5 ml) with 270 μl Model B detergent in the wells resulting in inhibitor concentrations of 0-30 μM and 4-FPBA concentrations of 0-6000 μM. Protease, inhibitor and detergent is mixed for 1 hour using magnetic bars for 1 hour at room temperature to reach equilibrium. Then 20 μl is transferred to a microtiter plate (Nunc F 96-MTP). 100 μl substrate solution is added and after 5 sec mixing absorbance at 405 nm is measured every 20 sec for 5 min on a SpectraMax Plus reader. Slope from linear regression of initial increase in absorbance at 405 nm is used for calculation of apparent binding constants.
(§2) It is assumed that protease and inhibitor react according to the equation: E+I ? EI
(§3) Where E is the protease, I is the inhibitor and EI is the protease-inhibitor complex. […] The concentration of enzyme-inhibitor in the detergent solution is then given by:
(§4) where Etot is the total protease concentration ([Etot]=[E]+[EI]), Itot is the total inhibitor concentration ([Itot]=[I]+[EI]), and Ki is the equilibrium binding constant for the reaction. The measured slopes V are given by:
(§5) where V0 is the slope without inhibitor added. To calculate apparent binding constant Ki least square fitting of measured slopes at various inhibitor concentrations to this equation is performed with Ki and V0 as variables.
The Ki for the parent protease and for each variant was calculated as described above
(§6) Having the Ki for each variant, it is possible to calculate the effect of a single mutation, if data are available for at least two variants that differ only by that mutation. In this case, the relative Ki for the mutation is calculated:
(§7) [formula] A lower Ki is desirable, as a satisfactory inhibition can be obtained at a lower inhibitor concentration, so beneficial mutations have a relative Ki<1.0 The following table show such relative Kimutation. Each row show: • a mutation (column 1: “Mutation”) • a protease variant (relative to SEQ ID NO: 2) that comprise the mutation from column 1 (column 2: “Variant with the mutation”) • another protease variant (relative to SEQ ID NO: 2), that differs from the one in column 2 only by not having the mutation in column 1 (column 3: “Variant without the mutation”) • Relative Kimutation for the mutation in column 1, in the context of the variant in column 3, measured in Model B detergent (column 4: “inhibitor binding in Model B”) • Relative Kimutation for the mutation in column 1, in the context of the variant in column 3, measured in Tris buffer at pH 8 (column 5: “inhibitor binding in Tris buffer pH 8”)
Ki were calculated as shown in Example 3. The Improvement Factor (IF) or Relative

[2] = Determination of binding constants of inhibitor in Tris buffer at pH 8; assay type: biochemical; conditions: Ki of variant with the mutation relative to variant without the mutation
Method: as §1, §2, §3, §4, §5, §6, §7

Row | Inhibitor-binding relative Kimutation, inhibitor binding in Model B [1] | Inhibitor-binding relative Kimutation, inhibitor binding in Tris buffer pH 8 [2] | Molecule
1 | 0.50 | 0.40 | I150A, S173P, S175P, F180Y: TY145 protease (SEQ ID NO 3) variant with these substitutions (protein, listed as Bacillus sp.) AVPSTQTPWGIKSIYNDQSITKTTGGSGIKVAVLDTGVYTSHLDLAGSAEQCKDFTQSNPLVDGSCTDRQGHGTHVAGTVLAHGGSNGQGVYGVAPQAKLWAYKVLGDNGSGYSDDIAAAIRHVADEASRTGSKVVINMSLGSSAKDSLAASAVDYAYGKGVLIVAAAGNSGPGPNTIGYPGGLVNAVAVAALENVQQNGTYRVADFSSRGNPATAGDYIIQERDIEVSAPGASVESTWYTGGYNTISGTSMATPHVAGLAAKIWSANTSLSHSQLRTELQNRAKVYDIKGGIGAGTGDDYASGFGYPRVK
2 | 0.35 | 0.21 | I150N, S173P, S175P, F180Y: TY145 protease (SEQ ID NO 3) variant with these substitutions (protein, listed as Bacillus sp.) AVPSTQTPWGIKSIYNDQSITKTTGGSGIKVAVLDTGVYTSHLDLAGSAEQCKDFTQSNPLVDGSCTDRQGHGTHVAGTVLAHGGSNGQGVYGVAPQAKLWAYKVLGDNGSGYSDDIAAAIRHVADEASRTGSKVVINMSLGSSAKDSLNASAVDYAYGKGVLIVAAAGNSGPGPNTIGYPGGLVNAVAVAALENVQQNGTYRVADFSSRGNPATAGDYIIQERDIEVSAPGASVESTWYTGGYNTISGTSMATPHVAGLAAKIWSANTSLSHSQLRTELQNRAKVYDIKGGIGAGTGDDYASGFGYPRVK

Further lines, the molecule ahead of its results:

Row | Molecule | Inhibitor-binding relative Kimutation, inhibitor binding in Model B [1] | Inhibitor-binding relative Kimutation, inhibitor binding in Tris buffer pH 8 [2]
3 | S114Q, S173P, S175P, F180Y: TY145 protease (SEQ ID NO 3) variant with these substitutions (protein, listed as Bacillus sp.) AVPSTQTPWGIKSIYNDQSITKTTGGSGIKVAVLDTGVYTSHLDLAGSAEQCKDFTQSNPLVDGSCTDRQGHGTHVAGTVLAHGGSNGQGVYGVAPQAKLWAYKVLGDNGSGYQDDIAAAIRHVADEASRTGSKVVINMSLGSSAKDSLIASAVDYAYGKGVLIVAAAGNSGPGPNTIGYPGGLVNAVAVAALENVQQNGTYRVADFSSRGNPATAGDYIIQERDIEVSAPGASVESTWYTGGYNTISGTSMATPHVAGLAAKIWSANTSLSHSQLRTELQNRAKVYDIKGGIGAGTGDDYASGFGYPRVK | 0.63 | 0.34
4 | K146T, S173P, S175P, F180Y: TY145 protease (SEQ ID NO 3) variant with these substitutions (protein, listed as Bacillus sp.) AVPSTQTPWGIKSIYNDQSITKTTGGSGIKVAVLDTGVYTSHLDLAGSAEQCKDFTQSNPLVDGSCTDRQGHGTHVAGTVLAHGGSNGQGVYGVAPQAKLWAYKVLGDNGSGYSDDIAAAIRHVADEASRTGSKVVINMSLGSSATDSLIASAVDYAYGKGVLIVAAAGNSGPGPNTIGYPGGLVNAVAVAALENVQQNGTYRVADFSSRGNPATAGDYIIQERDIEVSAPGASVESTWYTGGYNTISGTSMATPHVAGLAAKIWSANTSLSHSQLRTELQNRAKVYDIKGGIGAGTGDDYASGFGYPRVK | 0.08 | 0.06
